Test results reported in publication doi:10.1101/2020.07.23.218024 (bioRxiv, 2020).
Positions count from the first letter of the chain named. Names may count otherwise.

Columns and labels:
[1] = biological target: full-length His6-TEV-PEX5S (human, UniProt P50542-2 1-602); experiment: ELISA
[2] = biological target: microtubules / purified porcine brain tubulin (porcine); experiment: ELISA
ß-tubulin(388–444) = ß-tubulin(388–444) (human, UniProt P07437 388-444); experiment: ITC
15N-PEX14(16–80W) [3] = biological target: T1, 15N-PEX14(16–80W) (human, UniProt O75381 16-80, 15N-labelled); experiment: NMR titration
T1 chain: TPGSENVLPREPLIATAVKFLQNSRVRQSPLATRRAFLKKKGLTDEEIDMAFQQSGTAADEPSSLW

15N-PEX14(16–80W) [4] = biological target: T1, 15N-PEX14(16–80W); experiment: NMR titration

ß-tubulin(388–444), sequence (P07437 388-444): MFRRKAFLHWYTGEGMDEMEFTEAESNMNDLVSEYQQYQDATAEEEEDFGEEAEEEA

B1: GST-PEX14-NTD (domain or fragment)
chain: MASSEQAEQPSQPSSTPGSENVLPREPLIATAVKFLQNSRVRQSPLATRRAFLKKKGLTDEEIDMAFQQSGTAADEPSSL
**Q.** With B1 as the binder, how does the Kd [1] read?
**A.** ~0.5 nM

B2: GST-PEX14-NTD F52A (domain or fragment)
chain: TPGSENVLPREPLIATAVKFLQNSRVRQSPLATRRAALKKKGLTDEEIDMAFQQSGTAADEPSSL
**Q.** B2 was tested. Which Kd [2] did it give?
**A.** 39 ± 7.4 nM

B3: GST-PEX14-NTD K56A (domain or fragment)
chain: MASSEQAEQPSQPSSTPGSENVLPREPLIATAVKFLQNSRVRQSPLATRRAFLKKAGLTDEEIDMAFQQSGTAADEPS
**Q.** How did the Kd [2] turn out when B3 was run?
**A.** 12.5 ± 1.3 nM

B4: GST-PEX14-NTD F52A/K56A (domain or fragment)
chain: B3 chain with F52A
**Q.** Which Kd [2] does the source give for B4 here?
**A.** 89 ± 17 nM

B5: GST-PEX14-NTD K54A (domain or fragment)
chain: B3 chain with K54A, A56K
**Q.** Which Kd [2] does the source give for B5 here?
**A.** 3.9 ± 0.2 nM

B6: PEX14-NTD (as used in ITC) (domain or fragment)
chain: B2 chain with A37F
**Q.** B6 was tested. Which “stoichiometry N” value (ß-tubulin(388–444)) did it give?
**A.** 2

**Q.** Which Kd (15N-PEX14(16–80W) [3]) does the source give for MNDLVSEYQQYQDAT [LVSEY peptide] here?
**A.** ~5000 nM

**Q.** Which Kd (15N-PEX14(16–80W) [3]) does the source give for RKAFLHWYTGEGMDE [FLHWY peptide] here?
**A.** ~282000 nM

B7: His-PEX14-NTD (domain or fragment)
chain: B1 chain
**Q.** For B7, which Kd [1] is on record?
**A.** ~1.3 nM

**Q.** Does ALSENWAQEFLAAGDA [WAQEF peptide] bind (15N-PEX14(16–80W) [4])?
**A.** binds
